From patent US20260008856A1 (BLUEFIN BIOMEDICINE, published 2026) come the findings set out here.

A word on the Kd: it is a measure of binding affinity in units of concentration.

Positions count from the first letter of the chain named.

Sequences and labels used below:
B1: 5D12_18A4 (antibody, V domains shown)
VH: QVQLQESGPGLVKPLGTLSLTCAVSGGSISNSNWWSWVRQPPGKGLEWIGEIYHSGSTNYNPSLKSRVTIALDWSKNQFSLQLRSVTAADTAVYYCARYGSGPFGGDCWGQGTLVTVSS
VL: DIQLTQSPSFLSASVGDRVTISCRASQGISSYLAWYQQKPGKAPKLLIYAASTLQGGVPSRFSGSGSGTTFTLTISSLQPEDFATYYCQQLNTYPFTFGPGTKLEIK
notes: Recombinant human antibody
B2: 39G1_21C4 (antibody, V domains shown)
VH: QVQLQESGPGLVKPSETLSLTCAVSGYSASGVYYWGWIRQPPGKGLEWIGNIYHSGSTYYNPSLERRVSISLDTSKNHFSLRLNFVTAADTAVYYCARDRFDAFDIWGQGTMVTVSS
VL: EIVMTQSPATLSVSPGERATLSCRASQSINNILAWYQQKPGQAPRLLIYGASTRATGIPARFSGSGSGTEFTLTISSLQSEDFAVYYCQQYNNWPLTFGGGTKVEIK
B3: 39A9_28A4 (antibody, V domains shown)
VH: QVQLVESGGGVVQPGRSLRLSCAASGFTLSGYGMHWVRQAPGKGLEWVAVIWYDGSNKYYADSVKGRFTISRDNSKNMLFLQMNSLRAEDTAVYYCVRENGFGSGWFFDYWGQGNLVTVSS
VL: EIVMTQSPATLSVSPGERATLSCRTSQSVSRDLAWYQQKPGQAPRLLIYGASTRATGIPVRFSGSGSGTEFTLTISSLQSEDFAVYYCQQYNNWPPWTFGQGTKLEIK
notes: Recombinant human antibody
B4: 42D10_28A5 (antibody, V domains shown)
VH: QVQPKESGPGVVKPSETLSLTCAVSGFPISRGYYWGWIRQPPGKGLEWIGNIFHSGTTYYNPSLKSRVTISVDTSKNQISLKLTSVTAADTAVYYCVGFGDLPHYQYYVMDIWGQGTTVTVSS
VL: EIVLTQSPATLSLSPGERATLSCRASQSVSSYLAWYQQKPGQAPRLLIYDASNRATGIPARFSGSGSGTDFTLTISSLEPEDFAVYYCQQRSNWPPYTFGQGTKLEIK
notes: Recombinant human antibody
B5: 38G11_28A2 (antibody, V domains shown)
VH: EVQLVESGGGLVQPGGSLRLSCAASGFTFSSYWMSWVRQAPGKGLEWVANIKQDGSEKHYVDSVKGRFTISRDNAKNSLYLQMNSLRAEDTAVYYCAREGYFGSGYFDYWGQGTLVTVSS
VL: B1 VL with S22T, G56S, T70E, L91Y, N92S, T93F, P95S, F96H, P100Q
notes: Recombinant human antibody
B6: 5D12_C108Y (antibody, V domains shown)
VH: B1 VH with C108Y
VL: B1 VL
notes: Cys108Tyr (VH) variant of 5D12_18A4
B7: 10C8_C43A (antibody, V domains shown)
VH: QVQLVESGGGVVQPGRSLRISCAASGFTFRSYGMHWVRQAPGKGLEWVAIIWHDESYKYYVDSVKGRFTISRDNSKNTLYLQMNSLRAEDTAVYYCARGDYYGSGSYYDAFDIWGQGTMVTVSS
VL: DIQMTQSPSSLSASVGDRVIITCRASQGISNYLAWFQQKPGKAPNLLIYAASTLRSGVPSRFSGSGSGTDFTLTISSLQPEDVATYYCQKYNSAPYTFGQGTKVEIK
notes: Cys43Ala variant of 10C8_15A1
B8: 34D1_21B3 (antibody, V domains shown)
VH: QGQLVESGGGVVQPGRSLRLSCAASGFTFSSYTLHWVRQAPGKGLEWVAVIWYDGSNKYYVDSVKGRFTISRDNSKNTLYLQMNSLRAEDTAVYYCAREYGSGSYYNVYYGMDVWGQGTTVTVSS
VL: DIVMTQSPLSLPVTPGEPASISCRSSQSLLHSNGYKYLDWYLQKAGQSPHLLIYLGSNRASGVPDRFSGSGSGTDFTLKISRVEAEDVGFYYCMQTLQIPLTFGGGTKLEIK
notes: Recombinant human antibody
B9: 33H2_21B1 (antibody, V domains shown)
VH: B5 VH with L4V, A24T, S30R, S35T, K58R, N77T, N84S, V93M, F102Y
VL: DIQMTQSPSTLSASVGDRVIITCRASQSISRGLAWYQQKPGKAPKLLIYKASNLESGVPSRFSGSGSGTEFTLTISSLQPDDFAAYYCQQYSYYSHTFGQGTKVEIK
notes: Recombinant human antibody
B10: 36A12_21C1 (antibody, V domains shown)
VH: B5 VH with F29L, S31F, S35T, S56N, H59N, R72K, N77K, L79V, Y80F
VL: B9 VL with I20T, S30N, R31S, G32W, N53T, A85P, Q90H, S92N, Y93S, S95P
notes: Recombinant human antibody
B11: 34C11_21B2 (antibody, V domains shown)
VH: B5 VH with L4V, S30R, K58R, N77T, N84S
VL: B9 VL with V104L
notes: Recombinant human antibody
B12: 40C3_22B6 (antibody, V domains shown)
VH: B5 VH with F29L, S31F, S35T, S56N, H59N, Y60F, N77K, L79V, Y80F
VL: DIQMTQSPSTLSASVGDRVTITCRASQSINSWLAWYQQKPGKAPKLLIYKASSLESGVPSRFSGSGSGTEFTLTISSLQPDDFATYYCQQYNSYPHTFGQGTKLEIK
notes: Recombinant human antibody
B13: 32C12-N26S (antibody, V domains shown)
VH: QVQLVESGGGVVQPGRSLRLSCAASGFTFRNYGIHWVRQAPGKGLEWVAVIWYDGSNKFYADSVKGRFTISRDNSKNTLYLQMNSLRVEDTAVYYCAREEGIAVAPFDYWGQGTLVTVSS
VL: DIQMTQSPSSLSASVGDRVAITCRASQSIASYLNWYQQKPGKAPKLLIYGASSLQNGVPSRFSGSGSRTDFTLTISSLQPEDFATYYCQQSYSTEITFGQGTRLEIK
notes: Asn26Ser (VL CDR1) variant of 32C12_21A4
B14: 41G4_15B6 (antibody, V domains shown)
VH: B13 VH with I34M
VL: B13 VL with S26N
notes: Recombinant human antibody
B15: 32F9_21A5 (antibody, V domains shown)
VH: QLQLVESGGGVVQPGRSLRLSCAASGFTFSSHGMHWVRQAPGKGLEWVAVIWYDGSSEYYADSVKGRFTISRDNSKNTLYLQMNSLRAEDTAVYYCARENVYGSGWFFDYWGQGSLVTVSS
VL: EIVMTQSPATLSVSPGERASLSCRASQSVGSNLAWYQQKPGQAPRLLIFGASTRATGIPARFSGSRSGTEFTLTISSLQSEDFALYYCQQYNNWPPWTFGQGTKLEIK
notes: Recombinant human antibody
B16: 32D4_21D6 (antibody, V domains shown)
VH: B15 VH with H32Y, S115T
VL: B15 VL with L105V
notes: Recombinant human antibody
B17: 35D11_22A1 (antibody, V domains shown)
VH: B15 VH with H32Y, Y80F, E89D, S115T
VL: B15 VL with N92D
notes: Recombinant human antibody
B18: 33E9_21A6 (antibody, V domains shown)
VH: B15 VH with P14F, S115T
VL: B15 VL
notes: Recombinant human antibody
B19: 31F9_21A1 (antibody, V domains shown)
VH: B15 VH with L2V, V11M, A23T, Y53F, S57N, A61V, S115T
VL: B15 VL with L105V
notes: Recombinant human antibody
B20: 34H8_21B4 (antibody, V domains shown)
VH: QVQLQESGPGLVKPSETLSLTCAVSGYSASGLYYWAWIRQPPGKGLEWIGNIYHSGRTYYNPSLESRVSISLDTSKHQVSLKLKSVTYADTAVYFCARDRFDGFDIWGQGTMVTVSS
VL: B2 VL with S28T, V104L
notes: Recombinant human antibody
B21: 17E9_15B1 (antibody, V domains shown)
VH: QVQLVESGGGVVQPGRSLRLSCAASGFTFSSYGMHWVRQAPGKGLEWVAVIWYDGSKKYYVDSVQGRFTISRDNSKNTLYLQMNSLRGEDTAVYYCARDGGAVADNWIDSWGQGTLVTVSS
VL: DIQMTQSPSSLSASVGDRVTLTCRASQNIRSYLNWYQQKPGKAPKLLIFAASSLPSGVPSRFSGSGSVTDFTLTVSSLQPEDFATYSCQQSYSTPYTFGQGTKLEIK
notes: Recombinant human antibody
B22: 16H2_17D1 (antibody, V domains shown)
VH: EVQLLESGADLVQPGGSLRLSCAASGFTFSSYAMSWVRQAPGKGLEWVSTIRISGGTTYYADSVKGRFTISRDNSKNTLYLQMNSLRAEDTAVYYCVRDYYNGMDVWGQGTTVTVSS
VL: EIVLTQSPATLSLSPGERATLSCRASQRVSSYLAWYQQKPGQAPRLLIYDASNRATGIPARFSGSGSGTDFTLTISSLEPEDFAVYYCQQRSYWPPAFGQGTKLEIK
notes: Recombinant human antibody
B23: 10C8-15A4 (antibody, V domains shown)
VH: B22 VH with V2E, V12A, G56D, Y80F, Q109H
VL: B22 VL
notes: Recombinant human antibody
B24: 26C5_15B4 (antibody, V domains shown)
VH: B22 VH with V2A, A9G, D10G, R52S, I53G, T57S, Y59H, N102Y
VL: B22 VL with R28S, A97T
notes: Recombinant human antibody

The target of the first assay is T1, rat IL1RAP (Met1-Val570 plus Myc-DDK) on transfected 293 cells (Rattus norvegicus, UniProt Q63621 21-570).
T1 construct: whole, on cells; also called RR213032
T1 sequence (Q63621 21-570): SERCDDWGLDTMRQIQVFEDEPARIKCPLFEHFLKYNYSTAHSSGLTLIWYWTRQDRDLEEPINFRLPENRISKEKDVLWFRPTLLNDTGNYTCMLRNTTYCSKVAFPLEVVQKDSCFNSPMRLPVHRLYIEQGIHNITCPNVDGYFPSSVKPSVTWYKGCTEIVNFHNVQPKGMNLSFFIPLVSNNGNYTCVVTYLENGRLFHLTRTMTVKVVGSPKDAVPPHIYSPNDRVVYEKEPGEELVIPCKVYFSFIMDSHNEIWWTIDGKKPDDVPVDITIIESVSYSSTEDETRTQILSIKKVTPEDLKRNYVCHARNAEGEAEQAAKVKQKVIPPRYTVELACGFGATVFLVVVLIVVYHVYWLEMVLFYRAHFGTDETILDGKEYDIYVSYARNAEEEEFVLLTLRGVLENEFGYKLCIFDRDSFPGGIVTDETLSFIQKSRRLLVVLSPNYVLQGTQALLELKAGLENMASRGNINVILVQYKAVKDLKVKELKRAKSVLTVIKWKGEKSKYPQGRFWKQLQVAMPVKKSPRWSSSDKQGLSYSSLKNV
The assay can be described thus: flow cytometry on 293 cells expressing rat IL1RAP (293-puro-ratIL1RAP) vs 293T-puro [cont.]. The procedure: Staining for flow cytometry was performed in 1× cold PBS with 0.5% BSA. Primary antibodies (1 ug/ml) were incubated with live cells on ice for 30 minutes, after a brief wash, cells were incubated with Alexa Fluro® 488-conjugated anti-human IgG secondary antibody @1:1000 (709-546-149, Jackson ImmunoResearch). Acquisition of the data was performed on a MACSQuant® Flow Cytometers (Miltenyi Biotec) and analyzed with FlowJo software.
For B1, the binding result was “no binding (tested: 1 ug/ml)”.
For B2, the binding result is reported as “no binding (tested: 1 ug/ml)”.

For the next assay, the target named is T2, huIL1RAP ECD recombinant protein (human, UniProt Q9NPH3 21-367).
T2 construct: also called recombinant human IL1RAP-ECD; recombinant human IL1RAP; not shown: C-terminal histidine tag for purification
The assay can be described thus: Octet BLI, antibody on Protein A biosensor, recombinant huIL1RAP ECD. The procedure: Affinity: The affinity of antibodies to various recombinant IL1RAP protein was determined on an Octet Red™ instrument. After loading reagents into a 96-well plate, the Octet Red™ with Protein A-conjugated biosensors was programmed as follows: 30 seconds for baseline #1; 120 seconds to immobilize the antibody; 30 seconds for baseline #2; 300 seconds for association of antibody to recombinant IL1RAP; and 300-600 seconds for dissociation of recombinant IL1RAP from the antibody.
For orientation: Biolayer interferometry detects binding as a change in optical thickness at a sensor tip.
Regarding B3, the Kd was 3 nM.
Still for that read-out and setting: as for B4, the figure is 7 nM.
Turning to B1, the Kd turned out to be 19 nM.
Still for that read-out and setting: with B5 the figure was 29 nM; with B6, 13 nM; with B7, 13 nM.
For the molecule B8, the equilibrium dissociation constant (Kd) came out at 3 nM.
For B9, the Kd came to 7 nM.
Still for that read-out and setting: with B10 the figure was 24 nM; with B11, 0.2 nM; with B12, 23 nM.
As for B13, the Kd was 19 nM.
In the case of B14, the Kd turned out to be 5 nM.
B15: the Kd is 2 nM.
As for B16, the Kd came out at 3 nM.
In the case of B17, the Kd was 3 nM.
Turning to B18, the Kd was determined as 2 nM.
As for B19, the Kd was determined as 2 nM.
Turning to B2, the Kd was determined as 1.6 nM.
B20: the Kd came to 5 nM.
B21: the Kd worked out at 21 nM.
The same measure, in the same setting: as for B22, the figure is 50 nM; as for B23, 1 nM; as for B24, 127 nM.
